{"source": "paper PMC11528372", "origin": "cited, not measured here", "settings_in_all_cases": "cited from earlier work", "key": {"Asp85": {"target": "Asp85 (UniProt position 98, WARYADWLFTT)"}, "Asp74": {"target": "Asp74 (UniProt position 74, WGRYIDWVVTT)"}, "Asp121": {"target": "Asp121 (UniProt position 121, AYRYVDWLLTV)"}, "Asp97": {"target": "Asp97 (UniProt position 97, VFRYIDWLLTV)"}}, "data": [{"substance": "Bacteriorhodopsin (BR) (Halobacterium salinarum)", "values": [{"measurement": "pKa", "setting": "Asp85", "result": "~2.6"}]}, {"substance": "Cyanorhodopsin N2098R (Calothrix sp. NIES-2098 rhodopsin) (Calothrix sp. NIES-2098)", "values": [{"measurement": "pKa", "setting": "Asp74", "result": "<2.0"}]}, {"substance": "Gloeobacter rhodopsin (GR) (Gloeobacter violaceus PCC 7421)", "values": [{"measurement": "pKa", "setting": "Asp121", "result": "~5.9"}]}, {"substance": "Green-absorbing proteorhodopsin (GPR) (uncultured marine gamma proteobacterium EBAC31A08)", "values": [{"measurement": "pKa", "setting": "Asp97", "result": "~7.9"}]}]}
